Experimental data from PMC10350917 (Journal of Medicinal Chemistry, 2023).
Several values for one entry are separate records, joined by “and”; a condition that tells them apart may be missing. Equal entries are not always repeated.

Experiments:
[1] = system: ADC-30 in pBCSK(−) E. coli DH10B; test: Broth microdilution AST, ADC-30; type: cell-based; conditions: Escherichia coli, E. coli DH10B ADC-30, MB076 fixed at 10 mg/L in combinations, FDC in iron-depleted broth
Description: (§1) Susceptibility testing to standard antibiotics was performed by broth microdilution or agar dilution using an Oxoid replicator according to 2021 Clinical and Laboratory Standards Institute (CLSI) guidelines. MICs for CAZ, CTX, FEP, and TOL were determined using cation-adjusted Mueller Hinton MH broth, and MICs for FDC were done in iron-depleted cation-adjusted MH broth according to CLSI methods. MB076, S02030, and VAB were used at a fixed concentration of 10 mg/L. All MICs were interpreted according to the 2021 CLSI guidelines.[43]
(§2) blaADC-7 pBCSK- was cloned and expressed in E. coli DH10B cells as previously described.[44] All other blaADC variants were synthesized by GenScript according to the blaADC-7 pBCSK- strategy, cloning into the XbaI/BamHI sites of the pBCSK- vector.

[2] = system: ADC-219 in pBCSK(−) E. coli DH10B; test: Broth microdilution AST, ADC-219; type: cell-based; conditions: Escherichia coli, E. coli DH10B ADC-219, MB076 fixed at 10 mg/L in combinations, FDC in iron-depleted broth
Description: as §1, §2

[3] = system: ADC-7 in pBCSK(−) E. coli DH10B; test: Broth microdilution AST, ADC-7; type: cell-based; conditions: Escherichia coli, E. coli DH10B ADC-7, MB076 fixed at 10 mg/L in combinations, FDC in iron-depleted broth
Description: as §1, §2

[4] = system: ADC-33 in pBCSK(−) E. coli DH10B; test: Broth microdilution AST, ADC-33; type: cell-based; conditions: Escherichia coli, E. coli DH10B ADC-33, MB076 fixed at 10 mg/L in combinations, FDC in iron-depleted broth
Description: as §1, §2

ADC-33 = ADC-33 (Acinetobacter baumannii, UniProt A7Y407); conditions: ADC-33; substrate
Description: Steady-state kinetic parameters were determined by combining pure enzyme with antibiotic substrates in 50 mM NaH2PO4, pH 7.4 at room temperature. Changes in absorbance were measured on a Cary 60 UV–Vis spectrophotometer (Agilent Technologies) and converted to velocity using the change in extinction coefficient specific to nitrocefin (ε482 = 17,400 M^–1·cm^–1), cephalothin (ε262 = 7660 M^–1·cm^–1), ceftazidime (ε260 = 8660 M^–1·cm^–1), cefotaxime (ε260 = 7500 M^–1·cm^–1), cefepime (ε260 = 750 M^–1·cm^–1), cefiderocol (ε259 = 9430 M^–1·cm^–1), and ceftolozane (ε254 = 6810 M^–1·cm^–1). Initial velocities were fit to the Michaelis–Menten equation yielding kcat and KM values. For ADC/substrate combinations in which the KM was too large to accurately determine both kcat and KM values, the initial velocities at kcat/KM values were calculated from linear fits of vo in low [S] ranges (<0.08 × KM).

[5] = system: ADC-212 in pBCSK(−) E. coli DH10B; test: Broth microdilution AST, ADC-212; type: cell-based; conditions: Escherichia coli, E. coli DH10B ADC-212, MB076 fixed at 10 mg/L in combinations, FDC in iron-depleted broth
Description: as §1, §2

[6] = system: CC(=O)OCC1=C(C(=O)O)N2C(=O)[C@@H](NC(=O)Cc3cccs3)[C@H]2SC1; test: purified protein, by the assay type; conditions: 50 mM NaH2PO4 pH 7.4, room temperature
[7] = system: O=C(Cc1cccs1)N[C@@H]1C(=O)N2C(C(=O)O)=C(/C=C/c3ccc([N+](=O)[O-])cc3[N+](=O)[O-])CS[C@H]12; test: purified protein, by the assay type; conditions: 50 mM NaH2PO4 pH 7.4, room temperature
[8] = system: CO/N=C(\C(=O)N[C@@H]1C(=O)N2C(C(=O)[O-])=C(C[N+]3(C)CCCC3)CS[C@H]12)c1csc(N)n1; test: purified protein, by the assay type; conditions: 50 mM NaH2PO4 pH 7.4, room temperature
[9] = system: CC(C)(O/N=C(\C(=O)N[C@@H]1C(=O)N2C(C(=O)[O-])=C(C[n+]3ccccc3)CS[C@H]12)c1csc(N)n1)C(=O)O; test: purified protein, by the assay type; conditions: 50 mM NaH2PO4 pH 7.4, room temperature
[10] = system: CC(C)(O/N=C(\C(=O)N[C@@H]1C(=O)N2C(C(=O)[O-])=C(C[N+]3(CCNC(=O)c4ccc(O)c(O)c4Cl)CCCC3)CS[C@H]12)c1csc(N)n1)C(=O)O; test: purified protein, by the assay type; conditions: 50 mM NaH2PO4 pH 7.4, room temperature
[11] = system: Cn1c(N)c(NC(=O)NCCN)c[n+]1CC1=C(C(=O)O)N2C(=O)[C@@H](NC(=O)/C(=N\OC(C)(C)C(=O)[O-])c3nsc(N)n3)[C@H]2SC1; test: purified protein, by the assay type; conditions: 50 mM NaH2PO4 pH 7.4, room temperature

**Q.** Which results are given for `CC(C)(O/N=C(\C(=O)N[C@@H]1C(=O)N2C(C(=O)[O-])=C(C[N+]3(CCNC(=O)c4ccc(O)c(O)c4Cl)CCCC3)CS[C@H]12)c1csc(N)n1)C(=O)O` [cefiderocol]?
**A.** MIC [1]: 0.5 µg/mL; MIC [2]: 1 µg/mL; MIC [3]: 0.5 µg/mL; MIC [4]: 2 µg/mL; kcat (ADC-33): 0.60 s^–1; MIC [5]: 1 µg/mL

**Q.** With ADC-30 (Acinetobacter baumannii) as the compound, how does the Km ([6]; other: ADC-30, substrate) read?
**A.** 174.8 ± 8.8 µM

**Q.** What about the kcat ([6]; other: ADC-30, substrate) of the same compound?
**A.** 763 ± 16.5 s⁻¹

**Q.** What about the kcat/Km ([6]; other: ADC-30, substrate) of the same compound?
**A.** 4.36e+06 ± 310000 M⁻¹ s⁻¹

**Q.** And the Km ([7]; other: ADC-30, substrate)?
**A.** 46.3 ± 3.7 µM

**Q.** What about the kcat ([7]; other: ADC-30, substrate) of the same compound?
**A.** 538 ± 12.9 s⁻¹

**Q.** And the kcat/Km ([7]; other: ADC-30, substrate)?
**A.** 1.16e+07 ± 1.21e+06 M⁻¹ s⁻¹

**Q.** What about the kcat/Km ([8]; other: ADC-30, substrate) of the same compound?
**A.** 4900 M⁻¹ s⁻¹

**Q.** And the kcat/Km ([9]; other: ADC-30, substrate)?
**A.** 3300 M⁻¹ s⁻¹

**Q.** What about the kcat/Km ([10]; other: ADC-30, substrate) of the same compound?
**A.** < 1000 M⁻¹ s⁻¹

**Q.** And the kcat/Km ([11]; other: ADC-30, substrate)?
**A.** < 1000 M⁻¹ s⁻¹

**Q.** With `Cn1c(N)c(NC(=O)NCCN)c[n+]1CC1=C(C(=O)O)N2C(=O)[C@@H](NC(=O)/C(=N\OC(C)(C)C(=O)[O-])c3nsc(N)n3)[C@H]2SC1` [ceftolozane] as the compound, how does the MIC [1] read?
**A.** 8 µg/mL

**Q.** What about the MIC [2] of the same compound?
**A.** 128 µg/mL

**Q.** And the MIC [3]?
**A.** 8 µg/mL

**Q.** What about the MIC [4] of the same compound?
**A.** 256 µg/mL

**Q.** What about the kcat (ADC-33) of the same compound?
**A.** 4.23 s^–1

**Q.** And the MIC [5]?
**A.** 256 µg/mL

**Q.** What does the source list for ADC-33 (Acinetobacter baumannii)?
**A.** Km ([6]; other: ADC-33, substrate): 95.3 ± 3.5 µM; kcat ([6]; other: ADC-33, substrate): 347 ± 4.5 s⁻¹; kcat/Km ([6]; other: ADC-33, substrate): 3.64e+06 ± 180000 M⁻¹ s⁻¹; Km ([7]; other: ADC-33, substrate): 45.8 ± 6.07 µM; kcat ([7]; other: ADC-33, substrate): 707 ± 28.2 s⁻¹; kcat/Km ([7]; other: ADC-33, substrate): 1.54e+07 ± 2.66e+06 M⁻¹ s⁻¹; kcat/Km ([8]; other: ADC-33, substrate): 16900 M⁻¹ s⁻¹; Km ([9]; other: ADC-33, substrate): 59.3 ± 7.80 µM; kcat ([9]; other: ADC-33, substrate): 3.71 ± 0.088 s⁻¹; kcat/Km ([9]; other: ADC-33, substrate): 62600 ± 9700 M⁻¹ s⁻¹; Km ([10]; other: ADC-33, substrate): 107 µM and 107.2 ± 13.8 µM; kcat ([10]; other: ADC-33, substrate): 0.6 ± 0.0315 s⁻¹; kcat/Km ([10]; other: ADC-33, substrate): 5600 ± 1000 M⁻¹ s⁻¹; Km ([11]; other: ADC-33, substrate): 219.3 ± 21.6 µM; kcat ([11]; other: ADC-33, substrate): 4.23 ± 0.18 s⁻¹; kcat/Km ([11]; other: ADC-33, substrate): 19300 ± 2700 M⁻¹ s⁻¹
